These results are taken from publication PMC2921000 (Nature, 2010).

This assay addresses T1, Spc98p (Saccharomyces cerevisiae, UniProt P53540 1-846).
T1 sequence: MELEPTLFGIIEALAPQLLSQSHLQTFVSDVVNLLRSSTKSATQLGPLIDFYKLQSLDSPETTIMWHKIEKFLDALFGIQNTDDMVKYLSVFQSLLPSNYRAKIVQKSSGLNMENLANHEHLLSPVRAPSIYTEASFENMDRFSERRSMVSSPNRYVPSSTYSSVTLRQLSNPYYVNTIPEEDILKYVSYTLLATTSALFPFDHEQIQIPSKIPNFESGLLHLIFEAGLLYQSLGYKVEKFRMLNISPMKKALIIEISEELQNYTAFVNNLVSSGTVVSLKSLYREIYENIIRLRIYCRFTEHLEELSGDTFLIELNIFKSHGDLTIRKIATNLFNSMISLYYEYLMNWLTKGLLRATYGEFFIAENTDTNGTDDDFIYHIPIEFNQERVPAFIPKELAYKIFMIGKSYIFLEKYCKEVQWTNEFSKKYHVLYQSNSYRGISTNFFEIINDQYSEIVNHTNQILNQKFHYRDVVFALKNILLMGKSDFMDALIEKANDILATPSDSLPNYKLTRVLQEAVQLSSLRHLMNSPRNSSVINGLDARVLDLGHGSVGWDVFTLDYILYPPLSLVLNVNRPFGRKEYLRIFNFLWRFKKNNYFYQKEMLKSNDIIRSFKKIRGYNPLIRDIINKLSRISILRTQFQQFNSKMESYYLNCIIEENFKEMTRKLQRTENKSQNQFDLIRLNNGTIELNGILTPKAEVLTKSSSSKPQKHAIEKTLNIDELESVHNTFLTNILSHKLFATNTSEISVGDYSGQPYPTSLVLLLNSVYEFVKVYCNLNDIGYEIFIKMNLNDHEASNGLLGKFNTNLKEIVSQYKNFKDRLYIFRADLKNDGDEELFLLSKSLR
As to the kind of experiment: cryo-EM structure.

B1: Spc97p (natural protein)
chain: MEIKEVDDRAELLRYTNNIPLLGKLVNHQPLWSTNPKLKSFSLEKISAPDQRRVQEALVVKDLLNVLIGLEGTYIRYFNDYEPSDPETPIEFKIAKKMDPSFKTFSRRIVRYGKQYMILTRAYEKWSDTSFGMVLQRFAYEIRRFLEDVYLKTLVERLERDFNKVPNFSIRELEQIINETEVNKQMELLYNIYEEIFREIEERRTNQSSQEDFNNFMDSMKNESSLHLRLMVAFDTTVYPVPKGGAILKIFQQKILENLGDRSSVMFLKKLLNNISQDYCTMLYEWLTQGILNDPYQEFMTYDDLEGKTDNIFDTRDRAWDTQYFIRKDVLLRDCDSEEDKNLLFKMLRTGILLKVVRASLQIPTIPSNSSDITIQEINDFADLMEGSNLELYVDKCYSRANEIFLKLFFQGYDLINVLKHLQQIFLGYQSGHNVLKFLTKNMGELTKHYRNDNNANYDKLLQNFELERQSENPNNLMRQLLMIQFDTETLPQVLSHYLQIYPEVPENNSANDDSDPLMHANNFKNMNAILFDELSKERTGAYHGSNLELYTPKSAIYHLKFDINIPYPLNIIISRTCMIKYQIILRYQLVLQYHSRLLDETWMDLNKTPSWKYRGYSHTVKRRIVRATRVLHAKMNHFIKTIMEYFNQNVIDKEVYSLEKCYRNPTLAVAIQNELEGGLTNIMTNRCLSDLIPLQLQIFDIVYKFCKFIKSMRAKLCQLDPVLYEKHKSGMMKTLNEGYRTNNGGQEDVGYQEDAALELIQKLIEYISNASSIFRKCLINFTQELSTEKFDFYDSSSVDAAGIERVLYSIVPPRSASASSQR
Turning to B1, the binding result was “binds”.
